Tests used:
[1] = tested on: primary rat Schwann cells; assay: Induction of protein zero expression in Schwann cells (Western blot); format: cell-based; details: 100 ng/ml, N2 medium + 1 μM progesterone
Protocol: Primary Schwann cells were prepared as described above using 1-day old CD rat neonates. Schwann cells were grown in DMEM, 10% fetal bovine serum (FBS), plus bovine pituitary extract (PEX) at 20 μg/ml and Forskolin at 2μM. The cells were weaned down to a low serum medium (“Li” medium with 1% FBS added to it). Li medium was comprised of DMEM/F12, 10 μg/ml tranferrin, 5 μg/ml insulin, 2 nM progesterone, 2 μM Forskolin, 20 μg/ml PEX, and 20 ng/ml Heregulin-beta-1 (R & D Systems).
The Schwann cells were grown to confluency in the low serum growth medium on poly-L-lysine-coated 10 cm tissue culture dishes. The cell medium was changed to N2 medium+1 μM progesterone with either Forskolin (Calbiochem) (10 μM and 25 μM) or 100 ng/ml of human Zcyto7. Control medium was Schwann cells in N2+1 μM progesterone for the whole time. Cells were harvested and placed in lysis buffer (125 mM Tris HCl, pH 7.0, 15% sucrose, 4% SDS, 10 mM EDTA, plus added Roche Complete-EDTA-free, protease inhibitor cocktail).
Protein concentrations of cell lysates were determined by Pierce BCA protein assay (Pierce Chemical Co., Rockford, Ill.). Forty micrograms of each cell lysate sample was run on a 4-12% Tris-Glycine gel (Novex) at 125 V for 1 hour 30 minutes, and transferred onto a PVDF membrane in a Hoeffer unit a 550 mAmps for 1 hour. Mouse monoclonal antibody to protein zero was used at 1:1000 dilution (1 μg/am final concentration) to probe the blot. A Vectastain biotin/streptavidin-HRP 2nd antibody system was used for amplication. The blot was developed with Pierce SuperSignal West Pico chemiluminescent substrate and scanned on a Boehringer-Mannheim Lumi-Imager.

[2] = tested on: mRNA that encodes myelin basic protein and protein zero; assay: Hybridization studies: mRNA levels that encode myelin basic protein and protein zero; format: cell-based
Protocol: The expression of myelin basic protein and protein zero was also determined by measuring the mRNA levels that encode myelin basic protein and protein zero.

Molecule | Relative percentage of P zero protein (media control = 100%) [1] [%] | mRNA that encodes for myelin basic protein [2] | mRNA that encodes for protein zero [2]
human Zcyto7: Human Zcyto7 polypeptide (SEQ ID NO: 2), identified by its homology to Interleukin-17; used at 100 ng/ml (protein) MDWPHNLLFLLTISIFLGLGQPRSPKSKRKGQGRPGPLAPGPHQVPLDLVSRMKPYARMEEYERNIEEMVAQLRNSSELAQRKCEVNLQLWMSNKRSLSPWGYSINHDPSRIPVDLPEARCLCLGCVNPFTMQEDRSMVSVPVFSQVPVRRRLCPPPPRTGPCRQRAVMETIAVGCTCIF | 173 |  | 
Zcyto7: Zcyto7 polypeptide; species and solution not stated in Example 6 (protein) MDWPHNLLFLLTISIFLGLGQPRSPKSKRKGQGRPGPLAPGPHQVPLDLVSRMKPYARMEEYERNIEEMVAQLRNSSELAQRKCEVNLQLWMSNKRSLSPWGYSINHDPSRIPVDLPEARCLCLGCVNPFTMQEDRSMVSVPVFSQVPVRRRLCPPPPRTGPCRQRAVMETIAVGCTCIF |  | upregulated | upregulated

Source: US6569419B2, “Methods for promoting production of myelin by Schwann cells” (ZymoGenetics, Inc., priority 2000, dated 2003)
